{
  "source": "patent US20060246543",
  "proteins": {"B1": {"name": "recombinant SLIM (His-SLIM expressed in E. coli and purified on a Nickel column) (protein)", "chain": "MALTVDVAGPAPWGFRISGGRDFHTPIIVTKVTERGKAEAADLRPGDIIVAINGQSAENMLHAEAQSKIRQSASPLRLQLDRSQTASPGQTNGEGSLEVLATRFQGSLRTHRDSQSSQRSACFSPVSLSPRPCSPFSTPPPTSPVALSKEDMIGCSFQSLTHSPGLAAAHHLTYPGHPTSQQAGHSSPSDSAVRVLLHSPGRPSSPRFSLDLEEDSEVFKMLQENRQGRAAPRQSSSFRLLQEALEAEERGGTPAFVPSSLSSQASLPTSRALATPPKLHTCKKCSVNISNQAVRIQEGRYRHPGCYTCADCGLNLKMRGHFWVGNELYCEKHARQRYSMPGTLNSRA"}},
  "biological_target": "T1, STAT4 immunoprecipitated with anti-STAT4 from ConA-activated thymocytes",
  "T1 sequence (P42228 1-749, species assumed, looked up)": "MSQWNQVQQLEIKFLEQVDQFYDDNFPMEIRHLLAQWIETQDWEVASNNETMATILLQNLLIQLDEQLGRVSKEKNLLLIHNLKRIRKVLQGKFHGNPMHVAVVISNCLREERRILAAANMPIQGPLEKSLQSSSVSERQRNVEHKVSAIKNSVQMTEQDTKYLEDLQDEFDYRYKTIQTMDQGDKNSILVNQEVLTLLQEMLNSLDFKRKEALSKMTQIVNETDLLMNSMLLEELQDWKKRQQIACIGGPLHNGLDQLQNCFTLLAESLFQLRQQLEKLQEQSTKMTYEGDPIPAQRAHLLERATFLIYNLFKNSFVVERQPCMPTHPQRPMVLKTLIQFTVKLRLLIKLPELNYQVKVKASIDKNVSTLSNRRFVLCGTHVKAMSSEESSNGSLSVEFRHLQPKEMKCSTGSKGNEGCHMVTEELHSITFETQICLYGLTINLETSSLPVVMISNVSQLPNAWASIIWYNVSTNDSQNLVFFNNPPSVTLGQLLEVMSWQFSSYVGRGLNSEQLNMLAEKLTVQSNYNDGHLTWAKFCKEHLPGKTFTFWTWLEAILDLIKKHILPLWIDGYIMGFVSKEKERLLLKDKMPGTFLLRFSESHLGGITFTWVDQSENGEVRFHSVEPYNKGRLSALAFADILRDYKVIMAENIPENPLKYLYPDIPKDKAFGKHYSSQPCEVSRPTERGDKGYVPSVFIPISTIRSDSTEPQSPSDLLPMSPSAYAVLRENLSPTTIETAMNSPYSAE",
  "data": [
    {"protein": "B1", "values": [
      {"measurement": "in vitro ubiquitination of STAT4 (biotin-ubiquitin, E1, UbcH5a; immunoblot anti-STAT4)", "value": "purified recombinant SLIM could mediate the in vitro ubiquitination of purified STAT4 which was immunoprecipitated from ConA-activated thymocytes"}
    ]}
  ]
}
